Experimental data from US20230322924A1 (Janssen / Centocor, published 2023).

Experiments:
Human CD33 ECD-HSA = biological target: T1, Human CD33 ECD-HSA (human); assay: ProteOn SPR, mAb captured on anti-human Fc, antigen as analyte
T1 construct: CD33 ECD fused at the C-terminus to monomeric HSA (C58S) and a six-histidine tag; also called C33W2; huCD33 ECD-HSA
Description: (§1) The panel of mAbs was then further characterized for full affinity analysis as well as epitope binning. The binding of anti-CD33 mAbs to recombinant human CD33 ECD-HSA (C33W2) and cyno CD33 ECD-HSA (C33W1) was measured by ProteOn SPR (Bio-Rad). […] Different mAbs were captured on the anti-human Fc IgG surface at 0.25 or 0.5 μg/ml (160-300 RU) in vertical ligand orientation, with the 6th ligand channel as no ligand surface control. Human and cyno CD33-HSA proteins at 0.3 μM concentration in 3-fold dilution series of 5 concentrations flew in as analyte to bind to captured mAbs in the horizontal orientation. A buffer sample was also injected in the 6th channel to monitor the dissociation of captured mAb and baseline stability. […] The raw biding data were processed by double referencing after subtracting the response data from: 1) the inter-spot to correct for the non-specific interactions between the Ag and the empty chip surface; 2) the buffer channel to correct for baseline drifting due to the dissociation of captured mAb surface over time. The processed data at all antigen concentrations for each mAb were globally fit to a 1:1 simple Langmuir binding model to extract estimates of the kinetic (kₒₙ, koff) and affinity (Kd) constants.

Cyno CD33 ECD-HSA = biological target: T2, Cyno CD33 ECD-HSA (cynomolgus monkey); assay: as above
T2 construct: Cyno CD33 ECD fused to HSA and a six-histidine tag; also called C33W1
Description: as §1

Human CD33 full length = biological target: T3, Human CD33 full length (human, UniProt P20138 18-364); assay: flow cytometry on HEK293F cells expressing human CD33
T3 construct: also called huCD33
Description: (§2) The purified antibodies were assessed for binding to stably transfected HEK293F cells expressing human CD33 or cyno CD33 (generation described above) along with the parental HEK293F as negative control. Cells were harvested from tissue culture flasks using non-enzymatic dissociation buffer (Thermo Scientific). The flasks were rinsed twice with PBS and dissociation buffer was added to the flask, and the flask was incubated for 10 minutes at 37° C. until the cells became non-adherent. The cells were centrifuged at 300 g for 5 minutes and resuspended at 1.0×10⁶ cells/ml in staining buffer (Becton Dickinson; Franklin Lakes, NJ). 50,000 cells/well of each cell type was plated in 50 μl of staining buffer in round bottom plates (Becton Dickinson). […] 100 μl staining buffer was added to all wells of each plate, the plates were spun at 300 g for 5 min, the buffer was removed, 200 μl staining buffer was added to all wells of each plate, the plates were spun at 300 g for 5 min, and the buffer was removed. 50 μl of 2 μg/ml of Goat-anti-human Fc AF647 secondary antibody (Jackson Immunoresearch; West Grove, PA) was added to all wells of the plates, and the plates were incubated for 30 min at 4° C. 100 μl staining buffer was added to all wells of the plates, the plates were spun at 300 g for 5 min, and the buffer was removed. 200 μl running buffer (running buffer is Staining buffer, 1 mM EDTA, 0.1% Pluronic Acid) was added to all wells of the plates, the plates were spun at 300 g for 5 min, and the buffer was removed. 30 μl running buffer containing Sytox Green live/dead dye (ThermoFisher) was added to all wells with cells and the plates were read on an iQue IntelliCyt flow cytometer. Cells were gated on forward vs. side scatter to eliminate debris, then on singlets and then on live cells which excluded the Sytox stain. Antibody binding was assessed by the mean fluorescence intensity in the AF647 channel.
(§3) The OmniMouse panel (8 mAbs total) was generated separately and characterized further for binding to cells.

Cyno CD33 full length = biological target: T4, Cyno CD33 full length (cynomolgus monkey); assay: flow cytometry on HEK293F cells expressing cyno CD33
T4 construct: also called cyCD33
Description: as §2, §3

[1] = biological target: T5, cynomolgus CD3e/d complex on cells transiently transfected with pcDNA3.1-CD3e/d-cyn-mix (cynomolgus, UniProt Q95LI5 22-198; Q95LI8 22-171); assay: CELISA, hybridoma supernatant
T5 construct: Tagged screening constructs
Description: (§4) Hybridoma supernatants from fusions BLW (with magnetic bead depletion of lymphocytes) and BLX (without magnetic bead depletion of lymphocytes) were analyzed a) by a cell-based ELISA (CELISA) on cells transiently transfected with human and cynomolgus cDNA cloned into screening vectors: pOPT-CD3e-hum-epsilon-TCE.OMT+pOPT-CD3d-hum-delta.OMT, 1:1 (pOPT-CD3e/d-hum-mix) and pcDNA3.1-CD3e-cyn-[…]+pcDNA3.1-CD3d-cyn-delta, 1:1 (pcDNA3.1-CD3e/d-cyn-mix). For CELISA negative control, non-transfected mammalian cells were incubated with hybridoma supernatants and detected with the secondary Bethyl antibody. For a CELISA transfection control, mammalian cells, transfected with the constructs described above, were detected with anti-tag antibody.

[2] = biological target: T6, human CD3e/d complex on cells transiently transfected with pOPT-CD3e/d-hum-mix (human, UniProt P07766 23-126; P04234 22-171); assay: CELISA, hybridoma supernatant
T6 construct: Tagged screening constructs
Description: as §4

[3] = biological target: T7, human CD3 on human T cells (human, UniProt P07766 23-207); assay: flow cytometry, Jurkat CD3+ (E6-1)
T7 construct: Native TCR-CD3 complex on cells; also called primary human T cells; human pan T cells
T7 sequence (P07766 23-207 limits assumed): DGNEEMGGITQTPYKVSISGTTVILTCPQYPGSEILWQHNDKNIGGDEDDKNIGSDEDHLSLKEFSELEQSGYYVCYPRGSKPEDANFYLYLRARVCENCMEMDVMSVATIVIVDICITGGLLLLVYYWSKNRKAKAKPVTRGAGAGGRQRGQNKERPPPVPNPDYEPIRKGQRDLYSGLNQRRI

T3 sequence (P20138 18-364 limits assumed): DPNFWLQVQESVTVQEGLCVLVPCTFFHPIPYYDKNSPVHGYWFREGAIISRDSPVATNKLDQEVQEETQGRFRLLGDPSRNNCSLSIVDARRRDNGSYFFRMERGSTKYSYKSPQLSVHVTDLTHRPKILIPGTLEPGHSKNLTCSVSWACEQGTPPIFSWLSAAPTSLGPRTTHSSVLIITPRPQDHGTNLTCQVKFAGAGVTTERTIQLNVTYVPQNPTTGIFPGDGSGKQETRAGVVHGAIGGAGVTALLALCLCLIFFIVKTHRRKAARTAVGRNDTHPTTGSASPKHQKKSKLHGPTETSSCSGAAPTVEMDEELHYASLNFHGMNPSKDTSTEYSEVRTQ
T6 sequence (P07766 23-126 limits assumed, chain 1 of 2): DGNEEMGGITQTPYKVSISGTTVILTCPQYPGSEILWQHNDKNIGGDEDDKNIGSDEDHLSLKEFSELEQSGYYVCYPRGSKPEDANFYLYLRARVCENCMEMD
T6 sequence (P04234 22-171 limits assumed, chain 2 of 2): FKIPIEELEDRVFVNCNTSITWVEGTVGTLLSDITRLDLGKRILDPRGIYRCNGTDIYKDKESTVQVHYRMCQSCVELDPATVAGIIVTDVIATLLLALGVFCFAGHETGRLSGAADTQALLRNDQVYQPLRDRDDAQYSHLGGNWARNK
T5 sequence (Q95LI5 22-198 limits assumed, chain 1 of 2): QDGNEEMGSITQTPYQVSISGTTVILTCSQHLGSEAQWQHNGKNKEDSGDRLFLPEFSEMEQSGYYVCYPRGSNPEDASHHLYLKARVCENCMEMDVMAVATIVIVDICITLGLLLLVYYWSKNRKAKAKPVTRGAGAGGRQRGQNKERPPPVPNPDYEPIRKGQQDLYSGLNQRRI
T5 sequence (Q95LI8 22-171 limits assumed, chain 2 of 2): as the sequence (P04234 22-171 limits assumed, chain 2 of 2) above, with I5V, N15K, I20V, S32T, D33N, I34N, T64A, S74N, V83L, H141R counted along it

Binder | Kd (Human CD33 ECD-HSA) | koff (Human CD33 ECD-HSA) | kon (Human CD33 ECD-HSA) | Kd (Cyno CD33 ECD-HSA) | koff (Cyno CD33 ECD-HSA) | kon (Cyno CD33 ECD-HSA) | MFI at 0 nM (background) (Human CD33 full length) | MFI at 0.6 nM (Human CD33 full length) | MFI at 6 nM (Human CD33 full length) | MFI at 60 nM (Human CD33 full length) | MFI at 0 nM (background) (Cyno CD33 full length) | MFI at 0.6 nM (Cyno CD33 full length) | MFI at 6 nM (Cyno CD33 full length) | MFI at 60 nM (Cyno CD33 full length) | % positive [1] | Rfu [1] | % positive [2] | Rfu [2] | % positive [3] | geomean [3]
BLW-3B4 (antibody, V domains shown, OmniRat hybridoma supernatant: human V regions on rat constant regions; also called V regions cloned as CD3B313 (CD3H218/CD3L125)) VH: QVQLQQSGPGLVKPSQTLSLTCAISGDSVFNNNAAWSWIRQSPSRGLEWLGRTYYRSKWLYDYAVSVKSRITVNPDTSRNQFTLQLNSVTPEDTALYYCVRGYSSSFDYWGQGTLVTVSS VL: QSALTQPASVSGSPGQSITISCTGTSRDIGTYKFVSWYQQHPDKAPKVLLYEVSKRPSGVSSRFSGSKSGNTASLTISGLQAEDQADYHCCSYAGSGTLLFGGGTKLTVL | – | – | – | – | – | – | – | – | – | – | – | – | – | – | 66% | 320 rfu | 127% | 867 rfu | 72% | 199000 geometric mean fluorescence
BLX-3F4 (antibody, V domains shown, OmniRat hybridoma supernatant: human V regions on rat constant regions; also called V regions cloned as CD3B316 (CD3H222/CD3L124)) VH: QVRLQQSGPGLVKPSQTLSLTCAISGDSVFNNNAAWSWIRQSPSRGLEWLGRTYYRSKWLYDYAVTVKSRITVNPDTSRNQFTLQLTSVTPEDTALYYCARGYSSSFDYWGQGTLVTVSS VL: QSALTQPASVSGSPGQSITISCTGTSSNIGTYKFVSWYQQHPDKAPKVLLYEVSKRPSGVSSRFSGSKSGNTASLTISGLQAEDQADYHCCSYAGSGTLLFGGGTKLTVL | – | – | – | – | – | – | – | – | – | – | – | – | – | – | 76% | 371 rfu | 131% | 896 rfu | 66% | 182000 geometric mean fluorescence

Other lines, results leading:

Kd (Human CD33 ECD-HSA) | koff (Human CD33 ECD-HSA) | kon (Human CD33 ECD-HSA) | Kd (Cyno CD33 ECD-HSA) | koff (Cyno CD33 ECD-HSA) | kon (Cyno CD33 ECD-HSA) | MFI at 0 nM (background) (Human CD33 full length) | MFI at 0.6 nM (Human CD33 full length) | MFI at 6 nM (Human CD33 full length) | MFI at 60 nM (Human CD33 full length) | MFI at 0 nM (background) (Cyno CD33 full length) | MFI at 0.6 nM (Cyno CD33 full length) | MFI at 6 nM (Cyno CD33 full length) | MFI at 60 nM (Cyno CD33 full length) | % positive [1] | Rfu [1] | % positive [2] | Rfu [2] | % positive [3] | geomean [3] | Binder
22.1 nM | 0.0098 s⁻¹ | 444000 M⁻¹ s⁻¹ | 0.44 nM | 0.000233 s⁻¹ | 529000 M⁻¹ s⁻¹ | 185 MFI | 153000 MFI | 315000 MFI | 304000 MFI | 86.8 MFI | 22100 MFI | 33400 MFI | 45000 MFI | – | – | – | – | – | – | C33B914 (antibody, V domains shown, OMNIMouse-derived anti-CD33 mAb; same V regions as C33B906; also called C33H254/C33L120; C33F552) VH: QVQLVESGGGVVQPGRSLRLSCAASGFTFSYYGMHWVRQAPDKGLEWVAVIWFDGNNKYYADSVKGRFTISRDNSKNTLYLQMNSLRAEDTAVYYCARDRELLFDYWGQGTLVTVSS VL: SYELTQPPSVSVSPGQTASITCSGDELGDMYACWYQQKPGQSPLVVIYQDSKRPSGIPERFSGSNSGNTATLTISGTQAMDEAAYYCQTWDTRIAVFGGGTNLTVL
0.655 nM | 0.000411 s⁻¹ | 627000 M⁻¹ s⁻¹ | 0.852 nM | 0.000403 s⁻¹ | 473000 M⁻¹ s⁻¹ | 167 MFI | 193000 MFI | 404000 MFI | 448000 MFI | 104 MFI | 22800 MFI | 33300 MFI | 41000 MFI | – | – | – | – | – | – | C33B916 (antibody, V domains shown, OMNIMouse-derived anti-CD33 mAb; same V regions as C33B908; also called C33H256/C33L122; C33F554) VH: QVQLVESGGGVVQPGRSLRLSCATSGFTFSNYGMHWVRQAPGKGLEWVAVIWYVGSHKYYADSVKGRFTISRDNSKNTLYLQMNSLRAEDTAVYYCARDGSLCFDYWGQGTLVTVSS VL: SYELTQPPSVSVSPGQTANISCSGVTLGYNYAYWYQQKPGQSPILVISQDTQRPSGIPERFSGSNSGNTATLTISGTQAMDEAAYYCQAWDITTVLFGGGTKLTVL
– | – | – | – | – | – | – | – | – | – | – | – | – | – | 66% | 320 rfu | 127% | 867 rfu | 72% | 199000 geometric mean fluorescence | BLX-2E9 (antibody, V domains shown, OmniRat hybridoma supernatant: human V regions on rat constant regions; also called V regions cloned as CD3B315 (CD3H221/CD3L124)) VH: QVQLQQSGPGLVKPSQTLSLTCAISGDSVFNNNGAWSWIRQSPSRGLEWLGRTYYRSKWLYDYAVSVKSRITVNPDTSRNQFTLQLNSVTPEDTALYYCARGYSSSFDYWGQGTLVTVSS VL: QSALTQPASVSGSPGQSITISCTGTSSNIGTYKFVSWYQQHPDKAPKVLLYEVSKRPSGVSSRFSGSKSGNTASLTISGLQAEDQADYHCCSYAGSGTLLFGGGTKLTVL
